The values below come from article PMC10374065 (PLOS Pathogens, 2023).

The labels stand for the following.
B2: purified recombinant T7-tagged vIRF-1 (natural protein)
chain: MDPGQRPNPFGAPGAIPKKPCLSQGSPGTSGSGAPCDEPSRSESPGEGPSGTGGSAAAGDITRQAVVAAITEWSRTRQLRISTGASEGKASIKDWIVCQVNSGKFPGVEWEDEERTRFRIPVTPLADPCFEWRRDGELGVVYIRERGNMPVDASFKGTRGRRRMLAALRRTRGLQEIGKGISQDGHHFLVFRVRKPEEEQCVECGVVAGAVHDFNNMARLLQEGFFSPGQCLPGEIVTPVPSCTTAEGQEAVIDWGRLFIRMYYNGEQVHELLTTSQSGCRISSALRRDPAVHYCAVGSPGQVWLPNVPNLACEIAKRELCDTLDACAKGILLTSSCNGIFCVCYHNGPVHFIGNTVPPDSGPLLLPQGKPTRIFNPNTFLVGLANSPLPAPSHVTCPLVKLWLGKPVAVGKLEPHAPSPRDFAARCSNFSDACVVLEIMPKPLWDAMQ
notes: source: purified recombinant protein; not shown: T7, C-terminal, kept

Among the targets are GST-LC3B E41K (human, UniProt Q9GZQ8 1-120, E41K); GST-LC3B D19E (human, UniProt Q9GZQ8 1-120, D19E); GST-LC3B L22K (human, UniProt Q9GZQ8 1-120, L22K).
Common to all, as to assay: pull-down
What all share (details): both partners purified

Experiment [1] concerns the target B2.
The target in a further experiment is T1, GST-GABARAPL1 (human, UniProt Q9H0R8 1-117).
T1 construct: also called GABARAP-like 1; GL1
T1 sequence (Q9H0R8 whole entry): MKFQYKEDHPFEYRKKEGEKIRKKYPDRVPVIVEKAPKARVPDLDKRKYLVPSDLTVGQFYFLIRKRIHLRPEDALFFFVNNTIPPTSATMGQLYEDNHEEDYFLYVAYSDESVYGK

In experiment [2] the target is T2, purified recombinant T7-tagged GABARAPL1 (human, UniProt Q9H0R8 1-117).
T2 construct: also called T7-GABARAPL1

B1: GST-GABARAP (natural protein, human, UniProt O95166 1-117, looked up)
chain: MKFVYKEEHPFEKRRSEGEKIRKKYPDRVPVIVEKAPKARIGDLDKKKYLVPSDLTVGQFYFLIRKRIHLRAEDALFFFVNNVIPPTSATMGQLYQEHHEEDFFLYIAYSDESVYGL
notes: also called γ-amino-butyric acid receptor-associated protein
For the molecule B1, the binding result in experiment [1] is reported as “binds”.

As to B2, the binding result in the experiment with GST-GABARAPL1, in the experiment with GST-LC3B E41K, with GST-LC3B D19E and with GST-LC3B L22K was “binds” each time.

B3: GST-fused full-length (FL) vIRF-1 (natural protein)
chain: MDPGQRPNPFGAPGAIPKKPCLSQGSPGTSGSGAPCDEPSRSESPGEGPSGTGGSAAAGDITRQAVVAAITEWSRTRQLRISTGASEGKASIKDWIVCQVNSGKFPGVEWEDEERTRFRIPVTPLADPCFEWRRDGELGVVYIRERGNMPVDASFKGTRGRRRMLAALRRTRGLQEIGKGISQDGHHFLVFRVRKPEEEQCVECGVVAGAVHDFNNMARLLQEGFFSPGQCLPGEIVTPVPSCTTAEGQEAVIDWGRLFIRMYYNGEQVHELLTTSQSGCRISSALRRDPAVHYCAVGSPGQVWLPNVPNLACEIAKRELCDTLDACAKGILLTSSCNGIFCVCYHNGPVHFIGNTVPPDSGPLLLPQGKPTRIFNPNTFLVGLANSPLPAPSHVTCPLVKLWLGKPVAVGKLEPHAPSPRDFAARCSNFSDACVVLEIMPKPLWDAMQ
Turning to B3, in experiment [2], the binding result is “binds”.
